{"source": "patent US20210101973A1", "binders": {"B1": {"name": "synthetic LEAP2 peptide (mature peptide of human LEAP2) (peptide)", "peptide": "MTPFWRGVSLRPIGASCRDDSECITRLCRKRRCSLSVAQE", "modifications": "disulfide (positions not given here); also: labeled with Alexa 647, site not given here"}}, "key": {"[1]": {"molecular_target": "wild-type GHSR stably expressed in an independent cell line (calcium mobilization assay), Q92847", "sequence (Q92847 whole entry)": "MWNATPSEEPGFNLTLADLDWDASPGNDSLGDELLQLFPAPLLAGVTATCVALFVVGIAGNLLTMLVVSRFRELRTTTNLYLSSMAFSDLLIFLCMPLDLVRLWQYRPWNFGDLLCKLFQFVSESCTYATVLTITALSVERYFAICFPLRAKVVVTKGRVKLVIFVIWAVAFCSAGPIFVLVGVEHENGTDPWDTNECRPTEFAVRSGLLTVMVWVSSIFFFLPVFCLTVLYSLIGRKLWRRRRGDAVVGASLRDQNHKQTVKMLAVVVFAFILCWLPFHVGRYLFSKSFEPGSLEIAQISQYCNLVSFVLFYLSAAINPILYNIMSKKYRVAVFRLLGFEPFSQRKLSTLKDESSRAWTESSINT", "test": "cell-based or functional assay"}, "[2]": {"molecular_target": "GHSR on the PathHunter U2OS GHSR beta-Arrestin Cell Line (DiscoverX), Q92847", "test": "cell-based or functional assay"}}, "note": "Ends that are not written are not given here.", "data": [{"binder": "B1", "values": [{"measurement": "IC50 of abrogation of ghrelin-induced GHSR activity, calcium mobilization (FLUO-3)", "setting": "[1]", "value": 11.6, "unit": "nM"}, {"measurement": "IC50 of inhibition of ghrelin-induced GHSR activation, PathHunter beta-arrestin assay, antagonist format (ghrelin 13 nM)", "setting": "[2]", "value": 6.74, "unit": "nM"}]}]}
